T1: hAng2 (Homo sapiens, UniProt O15123)
T1 sequence (O15123 19-496): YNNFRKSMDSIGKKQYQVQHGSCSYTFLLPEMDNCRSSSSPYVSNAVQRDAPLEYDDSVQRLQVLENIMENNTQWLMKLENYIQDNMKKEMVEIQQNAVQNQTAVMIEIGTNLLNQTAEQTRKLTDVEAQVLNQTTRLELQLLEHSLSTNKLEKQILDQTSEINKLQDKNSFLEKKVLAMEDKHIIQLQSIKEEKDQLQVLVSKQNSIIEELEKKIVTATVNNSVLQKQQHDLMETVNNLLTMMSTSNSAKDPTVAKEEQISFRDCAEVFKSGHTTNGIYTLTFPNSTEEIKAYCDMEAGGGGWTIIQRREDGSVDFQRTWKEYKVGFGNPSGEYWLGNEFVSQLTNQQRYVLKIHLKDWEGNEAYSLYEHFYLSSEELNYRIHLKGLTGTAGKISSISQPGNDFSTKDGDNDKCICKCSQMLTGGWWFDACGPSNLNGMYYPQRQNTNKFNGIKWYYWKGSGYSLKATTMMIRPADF

B1: 2C8H11: humanized anti-Ang2 human IgG1 antibody from mouse 2C8; VH SEQ ID NO: 55, VL SEQ ID NO: 56 (antibody, V domains shown)
VH: QVQLVQSGAEVKKPGASVKVSCKASGYTFTSYWMHWVRQAPGQGLEWMGMIDPSDSETRLNQKFKDRVTMTRDTSTSTVYMELSSLRSEDTAVYYCARRFYYGSDWYFDVWGQGTLVTVSS
VL: DIQLTQSPSFLSASVGDRVTITCKASQDVGTAVAWYQQKPGKAPKLLIYWASTRHTGVPSRFSGSGSGTEFTLTISSLQPEDFATYYCQQYSSYPLTFGQGTKVEIK
modifications: human IgG1 constant regions; VH; VL
B2: 2C8: mouse monoclonal anti-Ang2 antibody; VH SEQ ID NO: 19, VL SEQ ID NO: 21; hybridoma KCLRF-BP-00417 (antibody, V domains shown)
VH: QVQLQQSGPQLVRPGASVKISCKASGYSFTSYWMHWVKQRPGQGLEWIGMIDPSDSETRLNQKFKDKASLTVDKSSSTAYMQLSSPTSGDSAVYYCARRFYYGSDWYFDVWGAGSTVTVSS
VL: DIVMTQSHKFMSTSVGDRVSITCKASQDVGTAVAWYQQKPGQSPKLLIYWASTRHTGVPDRFTGSGSGTDFTLTISNVQSEDLADYFCQQYSSYPLTFGSGTKLEIK
modifications: Heavy Chain Variable Region; Light Chain Variable Region
notes: mouse monoclonal anti-Ang2 antibody; hybridoma KCLRF-BP-00417
B3: 4B9: mouse monoclonal anti-Ang2 antibody; VH SEQ ID NO: 9, VL SEQ ID NO: 11; hybridoma KCLRF-BP-00418 (antibody, V domains shown)
VH: EVQLVESGGGLVKPGGSLKLSCAASGFTFSDYYMYWVRQTPEKRLEWVATISVGGSFTYYPDSVKGRFTISRDNAKNNLYLQMSSLKSEDTAMYYCARDWGLRPWFVYWGQGTLVTVSA
VL: DIVMTQSHKFMSTSVGDRVSITCKASQDVSTAVAWYQQKPGQSPKLLIYWASTRHTGVPDRFTGSGSGTDYTLTISSVQAEDLALYYCQQHYSTPPTFGSGTKLEIK
modifications: Heavy Chain Variable Region; Light Chain Variable Region
notes: mouse monoclonal anti-Ang2 antibody; hybridoma KCLRF-BP-00418

Assays:
[1] = tested on: LLC (Lewis Lung Carcinoma) tumor; experiment: Tumor growth inhibition in LLC subcutaneous model; assay type: in vivo, C57BL/6 mice; conditions: LLC s.c.; antibody 10 mg/kg i.p. every 2-3 days; Cpt 3 mg/kg i.p. once
Method: 2C8H11 anti-Ang2 antibody was tested for its ability to inhibit tumor growth in LLC (Lewis Lung Carcinoma) cell line tumor model. Specifically, LLC cell line (ATCC) was cultured in DMEM (GIBCO™) supplemented with 10% FBS (GIBCO™). LLC cells (1×10^6 in 100 μl of PBS) were subcutaneously injected into 6˜8-week-old C57BL/6 mice (Jackson Laboratory) which were anesthetized with a mixture of Ketamine and Xylazine. When the volume of the tumors reached 50˜100 mm^3, the mice were intraperitoneally administered with 10 mg/kg of 2C8H11 antibody every 2˜3 days. Cisplatin (Cpt) was injected intraperitoneally once at a dose of 3 mg/kg in both monotherapy and combination therapy groups. The changes in tumor volume was tracked over the following days. Tumor volume (V) was measured using the formula: V=(width^2×length)/2 V=(width^2×length)/2
The experiment was performed in 4 groups: Fc (control group), Fc+Cpt group, 2C8H11 group, and 2C8H11+Cpt group. […] Meanwhile, combined treatment with 2C8H11 and Cpt delayed tumor growth by 47% compared with Fc.

hAng2 = target: T1, hAng2; experiment: OCTET affinity of humanized anti-Ang2 antibodies against hAng2; assay type: binding; conditions: OCTET, antibody fixed on AR2G biosensor, hAng2 50-0 nM, 1:1 binding model
Method: The affinity of humanized anti-Ang2 antibody against hAng2 was measured using OCTET® system (ForteBio). Specifically, buffer and samples were measured in total 200 μl/well using Black 96-well plates (96 well F-type black plates, Greiner). The biosensor used for affinity measurements was hydrated for 10 min before measurement with AR2G tip (ForteBio OCTET®). After the hydration, humanized anti-Ang2 antibody was diluted in 10 mM sodium acetate, pH 6.0 buffer at a concentration of 10 μg/ml, fixed on AR2G biosensor, and blocked with 1M ethanolamine. The recombinant hAng2 was diluted to 50, 25, 12.5, 6.25, 3.125, and 0 nM with 1× kinetic buffer, and subjected to association for 300 sec and dissociation for 900 sec. For affinity measurement (KD), association rate (K-on) and dissociation rate (K-off) were analyzed by binding curve (global) and fitted to 1:1 binding model using OCTET® data analysis v9.0.0.10 program.
The affinities of humanized 2C8 antibodies to hAng2 were in Table 15.

[2] = tested on: CD31+ endothelial cells of CNV; experiment: Co-localization of subcutaneously injected antibody with CD31 in endothelial cells of CNV; assay type: in vivo, mice; conditions: 25 mg/kg subcutaneous at 1 day; 2, 4 and 8 days after laser photocoagulation
Method: To investigate whether subcutaneously injected 2C8H11 can also exert the therapeutic effects on CNV, we firstly evaluated co-localization 2C8H11 antibody and CD31 in endothelial cells of CNV. The subcutaneous administration of 2C8H11 antibody (25 mg/kg) was performed at 1 day after laser photocoagulation. As a control, Fc (25 mg/kg) was administered in the same manner to the mice. The co-localization of 2C8H11 antibody and anti-CD31 antibody (1:200, Millipore®) in endothelial cells of CNV was directly detected by anti-human IgG antibody (1:1000, Jackson ImmunoResearch Laboratories) at 2, 4, and 8 days after laser photocoagulation (FIG. 15A).

[3] = tested on: downstream signaling of the Tie2 receptor (Akt phosphorylation) in HUVECs; experiment: Akt phosphorylation in HUVECs by mouse anti-Ang2 antibodies plus hAng2 (immunoblot); assay type: cell-based, human; conditions: serum-starved HUVECs; antibody combined with hAng2 1 μg/ml; 30 min
Method: To investigate whether the mouse anti-Ang2 antibodies induce the downstream signaling of the Tie2 receptor in endothelial cells, HUVECs (LONZA™) were treated with a combination of hAng2 protein and anti-Ang2 antibody, and then the level of Akt phosphorylation, the main downstream signaling protein of Tie2 receptor, was analyzed by immunoblotting. As a negative control group, the full-length hAng2 (R&D® Systems) alone was treated into the cells.
Specifically, HUVECs (1×10^5 cells/ml) were cultured in EGM-2 medium (LONZA™) at 37° C. in a 60 mm culture dish. Cells (90% confluency) were incubated with serum-free EBM-2 medium for 4 hrs for serum starvation. The serum-starved HUVECs were treated with a mixture of anti-Ang2 antibody and hAng2 protein (1 μg/ml, R&D® Systems) and further incubated for 30 min. The cells were washed with cold PBS, treated with lysis buffer, and lysed at 4° C. for 20 min. Then, the cell lysates were prepared by centrifugation at 13000 rpm for 15 min. 5× SDS sample buffer was added to the cell lysate and the cell lysate was boiled at 95° C. for 5 min. Then, the cell lysate was subjected to SDS PAGE and proteins were transferred to a nitrocellulose membrane (GE).
To investigate Akt phosphorylation, the blot was blocked with 5% skim milk-containing TBS-T for 1 hr at room temperature (RT), and incubated with anti-phospho-Akt antibody (S473) at 4° C. for about 8 hrs. The amount of phospho-Akt was visualized by an enhanced chemiluminescence (ECL). Then, the membrane was incubated in a stripping buffer (Thermo) for 15 min, and then reprobed with an anti-Akt antibody to determine the amount of total Akt.

| Molecule | tumor growth inhibition compared with Fc [1] [%] | Kdis (hAng2) [s⁻¹] | Kon (hAng2) [M⁻¹ s⁻¹] | detection of administered antibody in CD31+ endothelial cells in CNV area [2] | Akt phosphorylation at S473 [3] |
| --- | --- | --- | --- | --- | --- |
| B1 | 29 | 1.4e-05 | 66000 | highly detectable |  |
| B2 |  |  |  |  | strongly induced |
| B3 |  |  |  |  | strongly induced |

Source: patent publication US12331106B2, “Anti-angiopoietin-2 antibodies that induce Tie2 activation” (Institute for Basic Science, priority 2018, dated 2025)
